From US20150087581A1 (AURIGENE DISCOVERY TECHNOLOGIES, published 2015)
Where no end group is shown, it is not given here.

Biological target: T1, recombinant hPDL-2 overexpressed on HEK 293 cells (human, UniProt Q9BQ51 20-273)
T1 chain: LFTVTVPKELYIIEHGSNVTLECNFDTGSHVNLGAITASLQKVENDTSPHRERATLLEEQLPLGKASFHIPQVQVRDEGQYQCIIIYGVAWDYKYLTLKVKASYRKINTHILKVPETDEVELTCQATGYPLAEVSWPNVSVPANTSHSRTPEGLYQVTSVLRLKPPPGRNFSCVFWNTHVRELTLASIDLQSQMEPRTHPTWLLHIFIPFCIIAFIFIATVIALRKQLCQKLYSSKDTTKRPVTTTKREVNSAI
Assay: flow cytometry, inhibition of soluble PD1-Fc binding to hPDL2-expressing HEK293 cells

B1: Compound 8 (peptide)
peptide: SNTSESFKFRVTQLAPKAQIKE-NH2
modifications: not fully specified (residue 8)
How did the EC50 turn out when B1 was run?
The EC50 was 0.722 nM.
